Data reported in patent US20030092616A1, “STAT6 activation gene” (priority 2001, published 2003).

Test system: STAT6
Experiment: Screening of full-length cDNA clones for promotion of STAT6 activation (luciferase reporter N4×8-luc)
Assay type: cell-based
Conditions: NIH3T3 cells cotransfected with N4×8-luc reporter and cDNA plasmid; 48 h culture, then mouse IL-4 0.5 ng/ml for 6 h
Procedure, shortened: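 Promotion of STAT6 activation scored as increase in luciferase signal over null-vector control cells. NIH3T3 cells carried N4×8-luc (100 ng) plus cDNA clone; after 48 h culture, 6 h stimulation with 0.5 ng/ml (final) mouse IL-4 preceded reading.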

Molecule | Activity = (luciferase activity of the gene of each SEQ ID NO:)/(luciferase activity of pME18S-FL3)
295 (nucleic acid, listed as Homo sapiens, CDS (64)..(519)) ACTCGTGCGTGAGGCGAGAGGAGCCGGAGACGAGACCAGAGGCCGAACTCGGGTTCTGACAAGATGGCCGGGCTGCCCCGCAGGATCATCAAGGAAACCCAGCGTTTGCTGGCAGAACCAGTTCCTGGCATCAAAGCCGAACCAGATGAGAGCAACGCCCGTTATTTTCATGTGGTCATTGCTGGCCCTCAGGATTCCCCCTTTGAGGGAGGGACTTTTAAACTTGAACTATTCCTTCCAGAAGAATACCCAATGGCAGCCCCTAAAGTACGTTTCATGACCAAAATTTATCATCCTAATGTAGACAAGTTGGGAAGAATATGTTTAGATATTTTGAAAGATAAGTGGTCCCCAGCACTGCAGATCCGCACAGTTCTGCTATCGATCCAGGCCTTGTTAAGTGCTCCCAATCCAGATGATCCATTAGCAAATGATGTAGCGGAGCAGTGGAAGACCAACGAAGCCCAAGCCATAGAAACAGCTAGAGCATGGACTAGGCTATATGCCATGAATAATATTTAAATTGATACGATCATCAAGTGTGCATCACTTCTCCTGTTCTGCCAAGACTTCCTCCTCTTTGTTTGCATTTAATGGACACAGTCTTAGAAACATTACAGAATAAAAAAGCCCAGACATCTTCAGTCCTTTGGTGATTAAATGCACATTAGCAAATCTATGTCTTGTCCTGATTCACTGTCATAAAGCATGAGCAGAGGCTAGAAGTATCATCTGGATTGTTGTGAAACGTTTAAAAGCAGTGGCCCCTCCCTGCTTTTATTCATTTCCCCCATCCTGGTTTAAGTATAAAGCACTGTGAATGAAGGTAGTTGTCAGGTTAGCTGCAGGGGTGTGGGTGTTTTTATTTTATTTTATTTTATTTTATTTTTGAGGGGGGAGGTAGTTTAATTTTATGGGCTCCTTTCCCCCTTTTTTGGTGATCTAATTGCATTGGTTAAAAGCAGCTAACCAGGTCTTTAGAATATGCTCTAGCCAAGTCTAACTTTATTTAGACGCTGTAGATGGACAAGCTTGATTGTTGGAACCAAAATGGGAACATTAAACAAACATCACAGCCCTCACTAATAACATTGCTGTCAAGTGTAGATTCCCCCCTTCAAAAAAAGCTTGTGACCATTTTGTATGGCTTGTCTGGAAACTTCTGTAAATCTTATGTTTTAGTAAAATATTTTTTGTTATTCT | 31.0
69 (nucleic acid, listed as Homo sapiens, CDS (31)..(687)) AGTGTTTGGGTTTCTTCGCGGCTGCTCAAGATGAACCGACTCTTCGGGAAAGCGAAACCCAAGGCTCCGCCGCCCAGCCTGACTGACTGCATTGGCACGGTGGACAGTAGAGCAGAATCCATTGACAAGAAGATTTCTCGATTGGATGCTGAGCTAGTGAAGTATAAGGATCAGATCAAGAAGATGAGAGAGGGTCCTGCAAAGAATATGGTCAAGCAGAAAGCCTTGCGAGTTTTAAAGCAAAAGAGGATGTATGAGCAGCAGCGGGACAATCTTGCCCAACAGTCATTCAACATGGAACAAGCCAATTATACCATCCAGTCTTTGAAGGACACCAAGACCACGGTTGATGCTATGAAACTGGGAGTAAAGGAAATGAAGAAGGCATACAAGCAAGTGAAGATCGACCAGATTGAGGATTTACAAGACCAGCTAGAGGATATGATGGAAGATGCAAATGAAATCCAAGAAGCACTGAGTCGCAGTTATGGCACCCCAGAACTGGATGAAGATGATTTAGAAGCAGAGTTGGATGCACTAGGTGATGAGCTTCTGGCTGATGAAGACAGTTCTTATTTGGATGAGGCAGCATCTGCACCTGCAATTCCAGAAGGTGTTCCCACTGATACAAAAAACAAGGATGGAGTTCTGGTGGATGAATTTGGATTGCCACAGATCCCTGCTTCATAGATTTGCATCATTCAAGCATATCTTGTAAAACAAACACATATTATGGGACTAGGAAATATTTATCTTTCCAAATTTGCCATAACAGATTTAGGTTTCTTTCCTTTCTTTGAAGGAAAGTTTAATTACATTGCTCTTTTATTTTTTCCATTAAGAGACTCATTGCTTGGGAAATGCTTTCTTCGTACTAAAATTTGATTCCTTTTTTTCTTATGAAAAACGAACTCAGTTTAAAAGTATTTTTAGCTCGTATGACTTGTTTTCATTCATTAATAATAATTTGAAATAAAACTAAGGAAATGGAATCTTAAAAGTCTATGACAGTGTAACTCTACAGTCTCAAAATGACCTGATAAATTGATAAGACAAAGATGAGATTATTGGGGCTGTTCATATTATGATTCAGAATCATTTTCTATTGTGGTATTATAGGTTGGTTAAAGTGATGGCCTTTTTGATGGGTTTTGTTGTGTCTTGTGAACAAGTCGTTACTGTGTCCATTATTGGAATGGAATTATCACTACTGTATCATGAGTGGGTATTTTGATTCTATGGTTCCCTCAGTATTACATCTTGACTTGTAATCAATTATGAATATTTCTTGATATTTAATGTATAGGACATTTATTTATACTCAATAAATATTTTTCAAAAGG | 11.7
275 (nucleic acid, listed as Homo sapiens, CDS (14)..(598)) GCAGACCCCCATCATGGGCAGCCAGAGCTCCAAGGCTCCCCGGGGCGACGTGACCGCCGAGGAGGCAGCAGGCGCTTCCCCCGCGAAGGCCAACGGCCAGGAGAATGGCCACGTGAAAAGCAATGGAGACTTATCCCCCAAGGGTGAAGGGGAGTCGCCCCCTGTGAACGGAACAGATGAGGCAGCCGGGGCCACTGGCGATGCCATCGAGCCAGCACCCCCTAGCCAGGGTGCTGAGGCCAAGGGGGAGGTCCCCCCCAAGGAGACCCCCAAGAAGAAGAAGAAATTCTCTTTCAAGAAGCCTTTCAAATTGAGCGGCCTGTCCTTCAAGAGAAATCGGAAGGAGGGTGGGGGTGATTCTTCTGCCTCCTCACCCACAGAGGAAGAGCAGGAGCAGGGGGAGATCGGTGCCTGCAGCGACGAGGGCACTGCTCAGGAAGGGAAGGCCGCAGCCACCCCTGAGAGCCAGGAACCCCAGGCCAAGGGGGCAGAGGCTAGTGCAGCCTCAGAAGAAGAGGCAGGGCCCCAGGCTACAGAGCCATCCACTCCCTCGGGGCCGGAGAGTGGCCCTACACCAGCCAGCGCTGAGCAGAATGAGTAGCTAGGTAGGGGCAGGTGGGTGATCTCTAAGCTGCAAAAACTGTGCTGTCCTTGTGAGGTCACTGCCTGGACCTGGTGCCCTGGCTGCCTTCCTGTGCCCAGAAAGGAAGGGGCTATTGCCTCCTCCCAGCCACGTTCCCTTTCCTCCTCTCCCTCCTGTGGATTCTCCCATCAGCCATCTGGTTCTCCTCTTAAGGCCAGTTGAAGATGGTCCCTTACAGCTTCCCAAGTTAGGTTAGTGATGTGAAATGCTCCTGTCCCTGGCCCTACCTCCTTCCCTGTCCCCACCCCTGCATAAGGCAGTTGTTGGTTTTCTTCCCCAATTCTTTTCCAAGTAGGTTTTGTTTACCCTACTCCCCAAATCCCTGAGCCAGAAGTGGGGTGCTTATACTCCCAAACCTTGAGTGTCCAGCCTTCCCCTGTTGTTTTTAGTCTCTTGTGCTGTGCCTAGTGGCACCTGGGCTGGGGAGGACACTGCCCCGTCTAGGTTTTTATAAATGTCTTACTCAAGTTCAAACCTCCAGCCTGTGAATCAACTGTGTCTCTTTTTTGACTTGGTAAGCAAGTATTAGGCTTTGGGGTGGGGGGAGGTCTGTAATGTGAAACAACTTCTTGTCTTTTTTTCTCCCACTGTTGTAAATAACTTTTAATGGCCAAACCCCAGATTTGTACTTTTTTTTTTTTTCTAACTGCTAAAACCATTCTCTTCCACCTGGTTTTACTGTAACATTTGG | 17.0
291 (nucleic acid, listed as Homo sapiens, CDS (16)..(456)) CGCCATCCCTGACCCATGGCGCTGAAGAGGATTCAGAAAGAATTGAGTGATCTACAGCGCGATCCACCTGCTCACTGTTCAGCTGGACCTGTGGGAGATGACTTGTTCCACTGGCAAGCCACTATTATGGGGCCTCCTGATAGCGCATATCAAGGTGGAGTCTTCTTTCTCACTGTACATTTTCCGACAGATTATCCTTTTAAACCACCAAAGATTGCTTTCACAACAAAAATTTACCATCCAAACATAAACAGTAATGGAAGTATTTGTCTCGATATTCTGAGGTCACAATGGTCACCAGCTCTGACTGTATCAAAAGTTTTATTGTCCATATGTTCTCTACTTTGTGATCCTAATCCAGATGACCCCTTAGTACCAGATATTGCACAAATCTATAAATCAGACAAAGAAAAATACAACAGACATGCAAGAGAATGGACTCAGAAATATGCAATGTAA | 13.0
293 (nucleic acid, listed as Homo sapiens, CDS (46)..(486)) GAGCATACACCGAGAGAGTGAGGAGCCAGACGACAAGCACACACTATGGCGCTGAAACGGATTAATAAGGAACTTAGTGATTTGGCCCGTGACCCTCCAGCACAATGTTCTGCAGGTCCAGTTGGGGATGATATGTTTCATTGGCAAGCCACAATTATGGGACCTAATGACAGCCCATATCAAGGCGGTGTATTCTTTTTGACAATTCATTTTCCTACAGACTACCCCTTCAAACCACCTAAGGTTGCATTTACAACAAGAATTTATCATCCAAATATTAACAGTAATGGCAGCATTTGTCTCGATATTCTAAGATCACAGTGGTCGCCTGCTTTAACAATTTCTAAAGTTCTTTTATCCATTTGTTCACTGCTATGTGATCCAAACCCAGATGACCCCCTAGTGCCAGAGATTGCACGGATCTATAAAACAGACAGAGATAAGTACAACAGAATATCTCGGGAATGGACTCAGAAGTATGCCATGTGATGCTACCTTAAAGTCAGAATAACCTGCATTATAGCTGGAATAAACTTTAAATTACTGTTCCTTTTTTGATTTTCTTATCCGGCTGCTCCCCTGATCAGACCTCATCTTTTTTAATTTTATTTTTTGTTTACCTCCCTCCATTCATTCACATGCTCATCTGAGAAGACTTAAGTTCTTCCAGCTTTGACAATAACTGCTTTTAGAAACTGTAAAGTAGTTACAAGAGAACAGTTGG | 25.8
